Key:
[1] = Peptide gelation (incubation, OD 550 nm, inverted tube); format: physicochemical; conditions: for self-assembly behaviour observed over time / gel formation in water: DI water; for self-assembly behaviour observed over time: up to 40 h; for gel formation in water: C-terminus Val mutated
Description: UV-Vis spectroscopy: The peptides were dissolved in DI water at the respective concentrations and 100 μL was aliquoted into each well of a 96-well microtiter plate, with a minimum of 3 wells per condition. UV-Vis absorbance measurements at 550 nm were recorded on a Tecan infinite M200 Pro microplate reader at intervals of 30 min for the first 16 hours and subsequently at increased time intervals.
Peptide hydrogel (GV8): GV8 peptide was dissolved in DI water at the desired concentration (between 10 and 20 mM) and incubated at ambient temperature of 23° C. to 25° C. for at least 12 hours. For active agent encapsulation, GV8 hydrogels were prepared at concentrations of 20 mM to 50 mM with 1% Dimethylsulfoxide (DMSO) added per 10 mM of peptide in PBS with a pH range of 7.2 to 7.4 to form GV8 precursors, which gelate in a sealed environment under ambient temperature of 23° C. to 25° C. with a typical gelation time ranging from 5 h to 9 h (FIG. 1), depending on the concentration of the GV8 precursor. The GV8 precursors were prepared in various types of buffer solutions—such as DI water, Dulbecco's Modified Eagle's medium (DMEM), sodium acetate buffered solution with a pH range of 4 to 5, and/or buffered solutions with a pH ranging from pH 4 to 7.4.
Peptide hydrogel (GI8): GI8 peptide was dissolved in DI water at the desired concentration (between 10 and 20 mM) and incubated at ambient temperature of 23° C. to 25° C. for at least 12 hours. GI8 hydrogels were prepared at concentrations of 20 mM to 50 mM with or without 1% Dimethylsulfoxide (DMSO) added per 10 mM of peptide in PBS with a pH range of 7.2 to 7.4 to form GI8 precursors, which gelate in a sealed environment under ambient temperature of 23° C. to 25° C. with a typical gelation time ranging from 2 h to 7 h (FIG. 1), depending on the concentration of the GI8 precursor. The GI8 precursors were prepared in various types of buffer solutions—such as DI water, Dulbecco's Modified Eagle's medium (DMEM), sodium acetate buffered solution with a pH range of 4 to 5, and/or buffered solutions with a pH ranging from pH 4 to 7.4. […]

topical puncture wounds = test: In vivo wound healing assay, hydrogels applied to topical puncture wounds; design: species or system mice; conditions: especially at initial stages (0 d to 2 d), n=3
Description: In vivo assay: To investigate the wound healing property of the hydrogels, 30 μL GV8 and GV8+ hydrogels loaded with 200 μg/mL ADMSC secretome were applied to topical puncture wounds on non-diabetic mice models, and monitored for a period of 2 d, 5 d and 7 d at various points in time. Representative wounds have been presented in FIG. 26, illustrating the healing of untreated (blank) and treated wounds over 7 d.

[2] = in the presence of Mg2+; cited from earlier work
[3] = Nanoindentation of GL8 beads; format: physicochemical

Substance | self-assembly behaviour observed over time [1] | gel formation in water [1] | also measured
Ac-GLYGGYGI-NH2 [GI8] | remained in solution with some gel-like formation observed overtime | – | incubation time to hydrogel formation ([1]; 10 mM peptide in water, inverted tube test): 1 h
Ac-GLYGGYGV-NH2 [GV8] | – | – | minimal critical gelation concentration (cgc) ([1]; in water): 10 mM; effect on wound closure versus control wounds (topical puncture wounds): promoted and accelerated wound closure
E2(SL)6E2GRGDS | – | – | storage modulus (G′) [2]: about 480 Pa
GA8: Ac-GLYGGYGX-NH2 (SEQ ID NO: 11) peptide, C-terminus Val residue mutated to Ala (Ac-GLYGGYGA-NH2) | – | not able to form gels in water | –
GF8: Ac-GLYGGYGX-NH2 (SEQ ID NO: 11) peptide, C-terminus Val residue mutated to Phe (Ac-GLYGGYGF-NH2) | remained in solution with some gel-like formation observed overtime | not able to form gels in water | –
GK8: Ac-GLYGGYGX-NH2 (SEQ ID NO: 11) peptide, C-terminus Val residue mutated to Lys (Ac-GLYGGYGK-NH2) | – | not able to form gels in water | –
GL8: Ac-GLYGGYGX-NH2 (SEQ ID NO: 11) peptide, C-terminus Val residue mutated to Leu (Ac-GLYGGYGL-NH2) | self-assembled into large (mm-size) and stiff beads | not able to form gels in water | Young's modulus, dried ([3]; dried condition): 8.34 GPa; Young's modulus, hydrated ([3]; hydrated condition): 3.03 GPa
GS8: Ac-GLYGGYGX-NH2 (SEQ ID NO: 11) peptide, C-terminus Val residue mutated to Ser (Ac-GLYGGYGS-NH2) | – | not able to form gels in water | –
